Changes are numbered by the printed parent chain.
T1: mouse FcγRII (mouse, UniProt P08101 30-210)
T1 construct: Extracellular domain with C-terminal His tag; also called mFcγRII; mFcgRII
T1 sequence: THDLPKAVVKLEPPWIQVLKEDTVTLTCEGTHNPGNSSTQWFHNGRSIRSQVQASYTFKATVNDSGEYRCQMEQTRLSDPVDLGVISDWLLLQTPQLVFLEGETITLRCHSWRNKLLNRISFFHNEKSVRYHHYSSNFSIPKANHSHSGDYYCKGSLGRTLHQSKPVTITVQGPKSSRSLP

T2: mouse FcγRIII (mouse, UniProt P08508 31-215)
T2 construct: Extracellular domain with C-terminal His tag; also called mFcγRIII; mFcgRIII
T2 chain: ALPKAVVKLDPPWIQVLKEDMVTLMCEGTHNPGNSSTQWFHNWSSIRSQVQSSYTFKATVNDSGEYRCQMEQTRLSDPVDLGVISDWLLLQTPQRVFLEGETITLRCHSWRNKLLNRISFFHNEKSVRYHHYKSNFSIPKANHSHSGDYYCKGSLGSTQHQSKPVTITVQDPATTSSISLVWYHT

T3: mouse FcγRII (mouse, UniProt P08101 30-210)
T3 construct: also called mFcγRII; mFcgRII
T3 sequence: T1 sequence

T4: mouse FcγRIII (mouse, UniProt P08508 31-215)
T4 construct: also called mFcγRIII; mFcgRIII
T4 chain: T2 chain

B1: MB847 (antibody, mouse IgG1, kappa)
heavy: QVQLQESGPGLVKPSETLSLTCAVSGHSISHDHAWSWVRQPPGEGLEWIGFISYSGITNYNPSLQGRVTISRDNSKNTLYLQMNSLRAEDTAVYYCARSLARTTAMDYWGEGTLVTVSSAKTTPPSVYPLAPGSAAQTNSMVTLGCLVKGYFPEPVTVTWNSGSLSSGVHTFPAVLQSDLYTLSSSVTVPSSTWPSETVTCNVAHPASSTKVDKKIVPRDCGCKPCICEPNEVELVFIFPPKPKDVLTITLTPKVTCVVVDISKDDPEVQFSWFVDDVEVHTAQTQPREELFNSTFRSVSELPIMHQDWLNGKEFKCRVNSDGFPAPIEKTISKTKGRPKAPQVYTIPPPKEQMAKDKVSLTCMITDFFPEDITVEWQWNGQPAENYKNTQPIMDTDGSYFVYSKLNVQKSNWEAGNTFTCSVLHEGLHNHHTEKSLSHSPGK
light: not shown
notes: CH name; VH H237 + CH, L chain MRAL-k0; copies: 2 + 2
B2: MB848 (antibody, mouse IgG1, kappa)
heavy: B1 heavy with L291Q, N320D
light: not shown
notes: as for B1
B3: MB849 (antibody, mouse IgG1, kappa)
heavy: B1 heavy with L291Q, P327Y
light: not shown
notes: as for B1
B4: MB850 (antibody, mouse IgG1, kappa)
heavy: B1 heavy with L291Q, E329Y
light: not shown
notes: as for B1
B5: MB851 (antibody, mouse IgG1, kappa)
heavy: B1 heavy with L291Q, K330R
light: not shown
notes: as for B1
B6: MB852 (antibody, mouse IgG1, kappa)
heavy: B1 heavy with N320D
light: not shown
notes: as for B1
B7: MB853 (antibody, mouse IgG1, kappa)
heavy: B1 heavy with P327Y
light: not shown
notes: as for B1
B8: MB854 (antibody, mouse IgG1, kappa)
heavy: B1 heavy with E329Y
light: not shown
notes: as for B1
B9: MB855 (antibody, mouse IgG1, kappa)
heavy: B1 heavy with K330R
light: not shown
notes: as for B1
B10: MB856 (antibody, mouse IgG1, kappa)
heavy: B1 heavy with L291Q, N320D, P327Y
light: not shown
notes: as for B1
B11: MB857 (antibody, mouse IgG1, kappa)
heavy: B1 heavy with L291Q, N320D, E329Y
light: not shown
notes: as for B1
B12: MB858 (antibody, mouse IgG1, kappa)
heavy: B1 heavy with L291Q, N320D, K330R
light: not shown
notes: as for B1
B13: MB859 (antibody, mouse IgG1, kappa)
heavy: B1 heavy with L291Q, P327Y, K330R
light: not shown
notes: as for B1
B14: MB860 (antibody, mouse IgG1, kappa)
heavy: B1 heavy with L291Q, E329Y, K330R
light: not shown
notes: as for B1
B15: MB861 (antibody, mouse IgG1, kappa)
heavy: B1 heavy with K264D, L291Q, N320D
light: not shown
notes: as for B1
B16: MB862 (antibody, mouse IgG1, kappa)
heavy: B1 heavy with K264D, L291Q, P327Y
light: not shown
notes: as for B1
B17: MB863 (antibody, mouse IgG1, kappa)
heavy: B1 heavy with K264D, L291Q, E329Y
light: not shown
notes: as for B1
B18: MB864 (antibody, mouse IgG1, kappa)
heavy: B1 heavy with K264D, L291Q, K330R
light: not shown
notes: as for B1
B19: MB865 (antibody, mouse IgG1, kappa)
heavy: B1 heavy with K264D
light: not shown
notes: as for B1
B20: H237-MB607/MRAL-k0 (antibody, mouse IgG1, kappa)
heavy: B1 heavy with E229T, P230V, N231P, V233E, L235E, L291Q, D322A, G323A
light: not shown
notes: mouse IgG1 CH variant; copies: 2 + 2
B21: H237-MB611/MRAL-k0 (antibody, mouse IgG1, kappa)
heavy: B1 heavy with E229T, P230V, N231P, V233E, E234D, L235E, L291Q, D322A, G323A
light: not shown
notes: as for B20
B22: H237-MB617/MRAL-k0 (antibody, mouse IgG1, kappa)
heavy: B1 heavy with E229T, P230V, N231P, V233E, E234S, L235D, F237D, L291Q, D322A, G323A
light: not shown
notes: as for B20
B23: H237-MB618/MRAL-k0 (antibody, mouse IgG1)
heavy: B1 heavy with E229T, P230V, N231P, V233E, E234D, L235D, L291Q, D322A, G323A
light: not shown
notes: as for B20
B24: H237-MB624/MRAL-k0 (antibody, mouse IgG1, kappa)
heavy: B1 heavy with P230D, N231Y, L291Q, D322A, G323A
light: not shown
notes: as for B20
B25: H237-MB626/MRAL-k0 (antibody, mouse IgG1, kappa)
heavy: B1 heavy with P230T, N231Y, L291Q, D322A, G323A
light: not shown
notes: as for B20

Molecular target: T1, mouse FcγRII
Test: SPR (Biacore T200); KD of H237-MB630/MRAL-k0 / KD of variant

Row | Binder | Relative mFcγRII-binding activity (MB630 = 1) [fold]
1 | B1 | 4.12
2 | B2 | 4.33
3 | B3 | 2.97
4 | B4 | 4.12
5 | B5 | 4.13
6 | B6 | 5.76
7 | B7 | 3.31
8 | B8 | 4.77
9 | B9 | 3.41
10 | B10 | 4.23
11 | B11 | 4.21
12 | B12 | 5.86
13 | B13 | 3.22
14 | B14 | 3.74
15 | B15 | 7.25
16 | B16 | 6.41
17 | B17 | 7.68
18 | B18 | 10.4
19 | B19 | 7.91

Molecular target: T2, mouse FcγRIII
Test: as above

Row | Binder | Relative mFcγRIII-binding activity (MB630 = 1) [fold]
20 | B1 | 7.24
21 | B2 | 5
22 | B3 | 3.54
23 | B4 | 4.3
24 | B5 | 5.23
25 | B6 | 10
26 | B7 | 6.2
27 | B8 | 6.84
28 | B9 | 6.21
29 | B10 | 4.95
30 | B11 | 4.92
31 | B12 | 6.92
32 | B13 | 3.9
33 | B14 | 4.07
34 | B15 | 13.2
35 | B16 | 10.8
36 | B17 | 12.7
37 | B18 | 19.9
38 | B19 | 18.3

Molecular target: T1, mouse FcγRII
Test: SPR (Biacore T200); KD of H237-mIgG1/MRAL-k0 / KD of variant

Row | Binder | relative mFcγRII-binding activity (mIgG1 = 1) [fold]
39 | B1 | 43.7
40 | B2 | 45.8
41 | B3 | 31.4
42 | B4 | 43.7
43 | B5 | 43.8
44 | B6 | 61
45 | B7 | 35
46 | B8 | 50.6
47 | B9 | 36.2
48 | B10 | 44.8
49 | B11 | 44.6
50 | B12 | 62
51 | B13 | 34.2
52 | B14 | 39.6
53 | B15 | 76.8
54 | B16 | 67.9
55 | B17 | 81.3
56 | B18 | 110
57 | B19 | 83.8

Molecular target: T2, mouse FcγRIII
Test: as above

Row | Binder | relative mFcγRIII-binding activity (mIgG1 = 1) [fold]
58 | B1 | 1.33
59 | B2 | 0.92
60 | B3 | 0.65
61 | B4 | 0.79
62 | B5 | 0.96
63 | B6 | 1.83
64 | B7 | 1.13
65 | B8 | 1.25
66 | B9 | 1.14
67 | B10 | 0.91
68 | B11 | 0.9
69 | B12 | 1.27
70 | B13 | 0.71
71 | B14 | 0.75
72 | B15 | 2.41
73 | B16 | 1.98
74 | B17 | 2.33
75 | B18 | 3.63
76 | B19 | 3.34

Molecular target: T3, mouse FcγRII
Test: SPR (Biacore), antibody captured on Protein L, mFcγR as analyte
Experimental: (§1) Each altered antibody was analyzed for its interaction with each Fcγ receptor prepared above using Biacore T100 (GE Healthcare Japan Corp.), Biacore T200 (GE Healthcare Japan Corp.), Biacore A100, or Biacore 4000. The running buffer used was HBS-EP+ (GE Healthcare Japan Corp.). The assay temperature was set to 25° C. The sensor chips used were chips prepared by immobilizing Protein L (ACTIGEN or BioVision) onto Series S Sensor Chip CM5 (GE Healthcare Japan Corp.) or Series S Sensor Chip CM4 (GE Healthcare Japan Corp.) by the amine coupling method.
(§2) In order to calculate the KD value of each altered antibody for FcγR, kinetic analysis was conducted according to the following method: first, the antibody of interest was captured onto any of these chips and allowed to interact with mFcγR diluted with a running buffer. For the obtained sensorgram, the assay results were globally fit into the 1:1 Langmuir binding model using Biacore Evaluation Software to calculate an association rate constant ka (L/mol/s) and a dissociation rate constant kd (1/s). From these values, the dissociation constant KD (mol/L) was calculated.

Row | Binder | Kd [µM] | relative mFcγRII-binding activity (mIgG1 = 1) [fold]
77 | B20 | 0.0679 | 3.14
78 | B21 | 0.192 | 1.11
79 | B22 | 0.255 | 0.84
80 | B23 | 0.156 | 1.63
81 | B24 | 0.263 | 0.88
82 | B25 | 0.261 | 0.89

Molecular target: T4, mouse FcγRIII
Test: as above
Experimental: as §1, §2

Row | Binder | Kd [µM] | relative mFcγRIII-binding activity (mIgG1 = 1) [fold]
83 | B20 | 1.77 | 0.18
84 | B21 | 3.42 | 0.09
85 | B22 | 2.1 | 0.15
86 | B23 | 2.73 | 0.13
87 | B24 | 2.87 | 0.11
88 | B25 | 2.37 | 0.14

From patent US20150203577A1 (Chugai, published 2015)
